Assay results from PMC6500386 (Biochemistry, 2019).

Target: the molecule itself
Assay: SEC + native gel or EMSA

B1: Bmp3, FAD-dependent prolyl-S-Bmp1(CP) oxidase (enzyme, Marinomonas mediterranea MMB-1)
chain: MNFEWTHEQAELFEHALRFGKELSAPLQEDNGFPRDNWNALGDFGYFGLPIPEKYAKDGSGFDILTTIKIIEGLGQSCTDTGLLFAGAAHTFACSMPILEHGSETLKHQLLPDLATGRKIAANAISEASAGSDISNLATTAQKEGDYYVLNGGKSYVTNGSIADYYVVYATTNKKHGYLGQTAFVVPRNTPGISVGNDYHKLGLRSAPLNQVFFDNCTIHKDYALGREGQGARIFAASMDWERCCLFAIFVGAMQRDLNQCIEYANTRMQGDKTISRFQAVSHRIADMGVRLESARLMLYYAAWQKSQDVDNTKAVAMSKLAISEAFVQSGIDSIRVHGALGYLDEGRVNNSIKDALGSVLFSGTSDIQRELICNRLGLL
stoichiometry N: 4
